# Experimental data taken from patent US20120164129.
# B1: Echis carinatus snake venom prothrombin activator (ecarin) (protein)
# chain: VPPHERKFEKKFIELVVVVDHSMVTKYNNDSTAIRTWIYEMLNTVNEIYLPFNIRVALVGLEFWCNGDLINVTSTADDTLHSFGEWRASDLLNRKRHDHAQLLTNVTLDHSTLGITFVYGMCKSDRSVELILDYSNITFNMAYIIAHEMGHSLGMLHDTKFCTCGAKPCIMFGKESIPPPKEFSSCSYDQYNKYLLKYNPKCILDPPLRKDIASPAVCGNEIWEEGEECDCGSPADCRNPCCDAATCKLKPGAECGNGECCDKCKIRKAGTECRPARDDCDVAEHCTGQSAECPRNEFQRNGQPCLNNSGYCYNGDCPIMLNQCIALFSPSATVAQDSCFQRNLQGSYYGYCTKEIGYYGKRFPCAPQDVKCGRLYCLDNSFKKNMRCKNDYSYADENKGIVEPGTKCEDGKVCINRKCVDVNTAY
# Columns and labels:
# Fibrinogen = Fibrinogen (UniProt P02671)
# [1] = molecular target: Ecarin-activatable E-WE Prethrombin-2 (W215A/E217A/N282D/P283G)
# Chain of UniProt P02671 (P02671 20-629, chain 1 of 3): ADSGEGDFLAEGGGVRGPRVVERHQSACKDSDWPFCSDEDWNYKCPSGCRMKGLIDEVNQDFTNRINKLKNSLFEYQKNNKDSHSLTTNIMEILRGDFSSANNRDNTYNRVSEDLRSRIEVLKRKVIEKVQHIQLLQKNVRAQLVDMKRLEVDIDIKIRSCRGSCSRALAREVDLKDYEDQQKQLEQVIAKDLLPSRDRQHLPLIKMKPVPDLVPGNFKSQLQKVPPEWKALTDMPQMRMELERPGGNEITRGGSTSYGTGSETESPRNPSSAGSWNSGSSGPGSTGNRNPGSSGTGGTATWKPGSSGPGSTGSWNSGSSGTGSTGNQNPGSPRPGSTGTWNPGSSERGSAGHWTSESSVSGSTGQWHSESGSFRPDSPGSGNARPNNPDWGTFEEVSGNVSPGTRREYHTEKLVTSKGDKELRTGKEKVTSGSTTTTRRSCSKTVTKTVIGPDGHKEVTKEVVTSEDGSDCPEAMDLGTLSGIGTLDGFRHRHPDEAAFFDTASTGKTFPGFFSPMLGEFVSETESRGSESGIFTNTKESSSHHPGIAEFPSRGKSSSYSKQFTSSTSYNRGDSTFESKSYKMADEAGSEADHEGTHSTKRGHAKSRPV
# Chain of UniProt P02671 (chain, as listed by the source, chain 2 of 3): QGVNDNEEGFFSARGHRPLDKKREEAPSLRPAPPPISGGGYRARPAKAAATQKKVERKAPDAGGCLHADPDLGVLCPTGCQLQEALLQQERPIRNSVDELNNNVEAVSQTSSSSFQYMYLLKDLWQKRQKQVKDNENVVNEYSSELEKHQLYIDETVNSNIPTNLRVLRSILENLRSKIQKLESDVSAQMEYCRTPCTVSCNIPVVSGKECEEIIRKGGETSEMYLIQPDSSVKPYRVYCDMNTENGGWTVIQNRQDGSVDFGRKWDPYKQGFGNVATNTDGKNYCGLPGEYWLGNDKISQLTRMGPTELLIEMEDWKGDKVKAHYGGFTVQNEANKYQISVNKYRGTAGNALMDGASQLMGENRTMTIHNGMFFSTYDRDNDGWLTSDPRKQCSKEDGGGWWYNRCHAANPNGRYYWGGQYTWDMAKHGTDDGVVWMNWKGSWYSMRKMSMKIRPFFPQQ
# Chain of UniProt P02671 (chain, as listed by the source, chain 3 of 3): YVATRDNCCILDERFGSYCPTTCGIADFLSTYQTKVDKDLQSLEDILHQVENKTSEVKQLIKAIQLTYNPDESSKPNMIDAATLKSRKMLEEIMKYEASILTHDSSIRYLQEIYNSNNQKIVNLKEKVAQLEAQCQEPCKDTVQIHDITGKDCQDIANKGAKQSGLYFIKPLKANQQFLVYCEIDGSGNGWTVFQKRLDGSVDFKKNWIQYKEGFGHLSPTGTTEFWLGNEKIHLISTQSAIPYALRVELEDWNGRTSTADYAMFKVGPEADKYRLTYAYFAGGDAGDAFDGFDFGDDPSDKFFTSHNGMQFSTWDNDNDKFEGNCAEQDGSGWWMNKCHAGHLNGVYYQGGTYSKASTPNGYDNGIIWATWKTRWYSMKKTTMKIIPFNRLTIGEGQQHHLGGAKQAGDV
molecule,measurement,setting,value
"E. coli-derived recombinant E-WE thrombin (W215A/E217A), prepared from E-WE prethrombin-2 expressed in E. coli",specificity toward fibrinogen,Fibrinogen,consistently shows lower specificity toward fibrinogen compared to the BHK-expressed construct
WE thrombin (W215A/E217A) prepared from WE prethrombin-1 expressed in BHK cells,activity toward fibrinogen,Fibrinogen,BHK produces a construct with significantly higher activity toward FPR and fibrinogen
B1,proteolytic cleavage at the engineered ecarin site,[1],Cleavage also occurred at the engineered ecarin site that had been introduced preceding the A chain
same,proteolytic cleavage between the A and B chains,[1],The expected cleavage took place between the A and B chains to form an A chain-extended E-WE thrombin
